Target: NCp7 (nucleocapsid protein) (HIV-1, UniProt P12493 378-432)
Assay: EMSA; 7.5-300 nM NCp7, 15 nM RNA folded in 50 mM KCl; free G4 decreases from 75 nM, near complete disappearance and faint complex at 300 nM; EMSA: RNA annealed in 10 mM Li cacodylate pH 7.4, 50 mM KCl; 15 nM RNA in 8% glycerol, 30 mM Tris-HCl, 15 mM MgCl2, 50 uM ZnCl2, 37 C; 12% native gel at 4 C

GGGAGGCGUGGCCUGGGCGGGACUGGGGAGUGG (structured_RNA) [RNA U3-III+IV G4]
binding result: binds

From paper PMC6909241
